Measured values from patent US20140223606, “COMPOSITIONS AND METHODS COMPRISING SEQUENCES HAVING MEGANUCLEASE ACTIVITY” (PIONEER HI BRED INTERNATIONAL INC, published 2014).

What was measured:
Experiment in all cases: cell_activity; yeast 30 C; 22 C: 0
Conditions in all cases: tags: NLS, 6xHis
LIG3-4(A4) = target: T1, LIG3-4(A4) (artificial)
T1 chain: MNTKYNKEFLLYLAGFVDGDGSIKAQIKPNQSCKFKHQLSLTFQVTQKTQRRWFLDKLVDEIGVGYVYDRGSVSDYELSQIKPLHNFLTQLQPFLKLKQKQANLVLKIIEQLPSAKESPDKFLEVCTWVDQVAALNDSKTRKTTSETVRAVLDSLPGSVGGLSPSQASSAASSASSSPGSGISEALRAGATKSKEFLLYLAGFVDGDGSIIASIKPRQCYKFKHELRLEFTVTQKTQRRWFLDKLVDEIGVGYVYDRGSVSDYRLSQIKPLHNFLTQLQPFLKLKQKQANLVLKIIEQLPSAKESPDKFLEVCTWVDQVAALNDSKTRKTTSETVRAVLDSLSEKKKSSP
Protocol: (§1) A 3 mL culture of selective media (MP Biomedical) was inoculated with a single colony of the yeast screening strain and grown at 30° C. overnight. On the following day, a 50 ml YPD culture (MP Biomedical) was started with 2 ml of the overnight culture and grown at 30° C. overnight. On the following day, the cells were harvested by centrifugation at 4000 rpm. The cells were resuspended in 100 ml ice cold water and centrifuged again. The cells were then washed in 1.2 M sorbitol, followed by treatment with 2 ml of 10 mM Tris pH 8.0, 1 mM EDTA, 100 mM Lithium acetate, 10 mM DTT, 0.6M sorbitol for 30 minutes at 30° C. with shaking. The cells were recovered by centrifugation, washed in 40 ml 1.2M sorbitol and finally resuspended in 250 microliters of 1.2M sorbitol. 50 microliter aliquots were transferred to test tubes on ice. Up to 5 microliters of DNA (100-500 nanograms) were added. The suspension was transferred to a 0.2 cm electroporation cuvette, on ice. Electroporation was performed with a pulse charge at 1.5 kV, 200 ohms, 25 microF (pulse time of 5 milliseconds). 1 mL YPD media (MP Biomedical) was added and the cells were allowed to recover at 30° C. for 1-2 hr. The cells were centrifuged, resuspended in 100 uL 1M sorbitol and plated on selective media lacking leucine and containing 2% galactose. The resulting yeast colonies were incubated at various temperatures ranging from 22 to 37 degrees Celsius for 7-10 days. I-CreI and meganucleases derived from it have maximal activity at or above 37 degrees Celsius. Screening was performed at a range of temperatures from 22 to 37 degrees in order to observe increases in activity at lower temperatures which are relevant to certain biological systems (eg. plant cells, plant cell cultures, etc). At that time the red/white sectoring phenotype, indicative of meganuclease activity was observed. Colonies with increased white sectoring over the parental meganuclease (indicating colonies expressing a meganuclease with increased meganuclease activity), also referred to as “hits” and sometimes completely white, were isolated for further analysis.

LIG3-4(A6) = target: T2, LIG3-4(A6) (artificial)
T2 chain: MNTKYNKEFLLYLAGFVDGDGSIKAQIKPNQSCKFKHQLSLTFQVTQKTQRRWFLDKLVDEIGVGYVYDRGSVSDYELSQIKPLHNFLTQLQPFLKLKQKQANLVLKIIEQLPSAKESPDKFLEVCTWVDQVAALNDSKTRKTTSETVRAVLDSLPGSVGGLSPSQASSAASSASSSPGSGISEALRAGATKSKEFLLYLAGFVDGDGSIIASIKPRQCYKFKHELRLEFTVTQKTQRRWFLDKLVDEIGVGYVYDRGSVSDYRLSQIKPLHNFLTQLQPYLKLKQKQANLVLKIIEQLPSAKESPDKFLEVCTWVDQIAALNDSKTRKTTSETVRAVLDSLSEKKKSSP
Protocol: as §1

LIG3-4(B24) = target: T3, LIG3-4(B24) (artificial)
T3 chain: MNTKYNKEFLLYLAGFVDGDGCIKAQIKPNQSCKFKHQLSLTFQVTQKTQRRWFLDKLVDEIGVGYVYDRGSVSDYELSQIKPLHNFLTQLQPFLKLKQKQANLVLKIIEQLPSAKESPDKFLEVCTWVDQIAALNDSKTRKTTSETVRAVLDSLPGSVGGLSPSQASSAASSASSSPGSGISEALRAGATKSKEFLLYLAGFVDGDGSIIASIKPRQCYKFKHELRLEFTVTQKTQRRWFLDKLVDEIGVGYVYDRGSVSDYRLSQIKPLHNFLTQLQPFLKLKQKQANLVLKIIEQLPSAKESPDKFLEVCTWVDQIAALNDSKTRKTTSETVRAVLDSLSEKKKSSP
Protocol: as §1

LIG3-4(B38) = target: T4, LIG3-4(B38) (artificial)
T4 chain: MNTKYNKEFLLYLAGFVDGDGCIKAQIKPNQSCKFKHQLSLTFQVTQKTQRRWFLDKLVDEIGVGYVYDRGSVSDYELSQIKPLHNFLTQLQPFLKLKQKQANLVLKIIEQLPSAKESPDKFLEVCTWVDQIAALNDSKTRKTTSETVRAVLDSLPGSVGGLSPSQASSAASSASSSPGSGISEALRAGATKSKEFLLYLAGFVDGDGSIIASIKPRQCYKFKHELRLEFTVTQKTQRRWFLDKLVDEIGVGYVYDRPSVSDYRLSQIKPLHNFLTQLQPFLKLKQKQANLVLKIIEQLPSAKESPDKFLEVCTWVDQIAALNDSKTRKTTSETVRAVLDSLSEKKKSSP
Protocol: as §1

LIG3-4(B55) = target: T5, LIG3-4(B55) (artificial)
T5 chain: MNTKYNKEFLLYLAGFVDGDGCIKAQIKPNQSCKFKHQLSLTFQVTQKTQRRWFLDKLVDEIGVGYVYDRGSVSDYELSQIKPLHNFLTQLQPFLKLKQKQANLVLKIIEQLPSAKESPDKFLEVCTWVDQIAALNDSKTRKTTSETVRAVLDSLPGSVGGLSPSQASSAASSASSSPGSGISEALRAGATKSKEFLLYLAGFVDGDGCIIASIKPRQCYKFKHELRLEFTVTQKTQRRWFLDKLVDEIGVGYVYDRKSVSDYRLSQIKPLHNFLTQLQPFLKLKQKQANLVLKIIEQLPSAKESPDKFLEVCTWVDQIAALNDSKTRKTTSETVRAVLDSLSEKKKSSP
Protocol: as §1

B1: LIG3-4 recognition site (dsDNA)
DNA 1: ATATACCTCACACGTACGCGTA
DNA 2: TACGCGTACGTGTGAGGTATAT
- activity (LIG3-4(A4)): 3.5 score 0-4
- activity (LIG3-4(A6)): 3 score 0-4
- activity (LIG3-4(B24)): 4 score 0-4
- activity (LIG3-4(B38)): 4 score 0-4
- activity (LIG3-4(B55)): 4 score 0-4
